Molecular target: KLF4 (UniProt Q60793)
Experiment: anti-HA co-IP, STAT3 blot
Settings: reference: wild-type FLAG-STAT3; sites Y705

- binding against the reference: lost
Substance: STAT3 (from UniProt P42227) Y705F

From PMC3867821
